From patent US20230265183A1 (MABWELL SHANGHAI BIOSCIENCE, published 2023)
Like-named read-outs stand apart in the source and are kept apart here.

Columns and labels:
human Nectin-4 [1] = biological target: T1, human Nectin-4 (human, UniProt Q96NY8 32-510); assay: FACS on BT474 cells
T1 construct: whole, on cells; Cell-surface target of the FACS, endocytosis and proliferation assays (CHO-huNectin4 S8 cells, BT474 cells); the assay field says which cells; also called huNectin4; PVRL4
T1 sequence (looked up): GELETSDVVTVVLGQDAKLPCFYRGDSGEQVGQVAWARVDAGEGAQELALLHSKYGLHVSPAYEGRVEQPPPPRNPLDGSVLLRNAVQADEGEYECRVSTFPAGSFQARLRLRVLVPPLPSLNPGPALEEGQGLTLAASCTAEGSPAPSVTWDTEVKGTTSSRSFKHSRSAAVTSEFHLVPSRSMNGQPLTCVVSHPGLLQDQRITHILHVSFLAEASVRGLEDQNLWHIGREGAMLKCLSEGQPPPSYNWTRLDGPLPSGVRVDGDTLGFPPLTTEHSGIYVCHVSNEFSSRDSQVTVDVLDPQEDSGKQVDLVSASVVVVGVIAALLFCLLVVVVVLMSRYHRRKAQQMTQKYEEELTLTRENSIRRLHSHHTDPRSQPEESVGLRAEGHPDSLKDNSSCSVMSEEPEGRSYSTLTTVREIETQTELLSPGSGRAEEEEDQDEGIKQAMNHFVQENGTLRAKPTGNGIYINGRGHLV
Description: (§1) The solutions of different concentrations were added to 384-well plates, 10 µl per well.
(§2) BT474 cells (breast cancer cells) expressing Nectin-4 on the cell surface were collected by centrifugation at 100 g at room temperature for 5 minutes, and then the cells were washed with PBS containing 0.5% BSA once and were centrifuged at 100 g at room temperature for 5 minutes. […] After incubation at 4° C. for 1 hour, fluorescently labeled goat anti-human IgG secondary antibody was added. After continued incubation at 4° C. for 1 hour, mean fluorescence readings of the cell populations were analyzed by a flow cytometer.
(§3) The experiment results of the binding of engineered humanized molecules of the present disclosure to BT474 cells by FACS assay are shown in panels 3B and 3C in FIG. 3 and Tables 6 and 7.

human Nectin-4 [2] = biological target: T1, human Nectin-4; assay: cell-based or functional assay
human Nectin-4 [3] = biological target: T1, human Nectin-4; assay: FACS on BT474 cells; remark: listed apart in the source
Description: as §1, §2, §3

human Nectin-4 [4] = biological target: T1, human Nectin-4; assay: cell-based or functional assay; remark: listed apart in the source
His-tagged human NECTIN4 = biological target: T2, His-tagged human NECTIN4 (human, UniProt Q96NY8 32-349); assay: SPR (BIAcore S200), antigen on CAP chip, antibody as analyte, 1:1 fit
T2 construct: Antigen of the BIAcore assay; also called antigen; recombinant NECTIN4 protein; not shown: His tag
T2 sequence: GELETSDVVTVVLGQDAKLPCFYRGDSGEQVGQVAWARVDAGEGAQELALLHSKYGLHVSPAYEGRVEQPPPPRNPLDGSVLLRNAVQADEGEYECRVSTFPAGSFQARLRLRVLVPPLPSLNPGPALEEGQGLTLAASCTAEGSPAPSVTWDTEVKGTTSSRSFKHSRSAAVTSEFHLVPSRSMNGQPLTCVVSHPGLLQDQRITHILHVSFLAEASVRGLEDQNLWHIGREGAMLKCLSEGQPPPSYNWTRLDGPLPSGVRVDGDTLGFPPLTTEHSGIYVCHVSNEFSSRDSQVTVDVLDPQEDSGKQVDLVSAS
Description: Interactions between the antibodies and the antigen were measured using a BIAcore instrument S200 from GE. Referring to the instructions provided in Biotin Capture Kit from GE Healthcare, the analytical channel and the control sample channel on CAP sensor chip were first coupled with antigen i.e. His-tagged human NECTIN4, then samples containing antibodies (diluted 3-fold from an initial concentration of 20 nM respectively and solutions of each antibody of 8 concentrations were obtained totally, and the concentration 0.741 nM was set to be repeated) were allowed to flow through both the analytical channel and the sample channel, and the photoreactions upon antibody-antigen binding were measured. Association constant Kon and dissociation constant Koff and affinity constant KD of each antibody were finally obtained by instrument software fitting (1:1 binding mode) analysis.

Row | Binder | EC50 (human Nectin-4 [1]) [µg/mL] | Endocytosis efficiency (%) (human Nectin-4 [2]) | EC50 (human Nectin-4 [3]) [µg/mL] | Endocytosis efficiency (%) (human Nectin-4 [4]) | Kd (His-tagged human NECTIN4) [nM] | koff (His-tagged human NECTIN4) [s⁻¹] | kon (His-tagged human NECTIN4) [M⁻¹ s⁻¹]
1 | 5M21 hz00 (antibody, human IgG1, kappa, V domains shown, Humanized) VH: QVQLVQSGAEVKKPGASVKVSCKASGYTFTTYYIHWVRQAPGQRLEWMGWIYPGNVNTKYNEKFKGRVTITRDTSASTAYMELSSLRSEDTAVYYCARGLYYFDYWGQGTLVTVSS VL: DIQMTQSPSSLSASVGDRVTITCKASQSVSNDVAWYQQKPGKVPKLLIYYASNRYTGVPSRFSGSGSGTDFTLTISSLQPEDVATYYCQQDYSSPYTFGGGTKVEIKR | 52.2 | 54.8 |  |  |  |  | 
2 | 5M21 hz01 (antibody, human IgG1, kappa, V domains shown, Humanized) VH: QVQLVQSGAEVKKPGASVKVSCKASGYTFTTYYIHWVRQAPGQRLEWMGWIYPGNVNTKYNEKFKGRVTITRDTSASTAYMELSSLRSEDTAVYYCARGLYYFDYWGQGTLVTVSS VL: DIQMTQSPSSLSASVGDRVTITCKASQSVSNDVAWYQQKPGKVPKLLIYYASNRYTGVPSRFSGSGSGTDFTLTISSLQPEDLATYFCQQDYSSPYTFGGGTKVEIKR | 48.1 | 62.2 |  |  |  |  | 
3 | 5M21 hz10 (antibody, human IgG1, kappa, V domains shown, Humanized) VH: QVQLVQSGAEVKKPGASVKVSCKASGYTFTTYYIHWVRQAPGQRLEWMGWIYPGNVNTKYNEKFKGRVTITADKSASTAYMELSSLRSEDTAVYYCARGLYYFDYWGQGTLVTVSS VL: DIQMTQSPSSLSASVGDRVTITCKASQSVSNDVAWYQQKPGKVPKLLIYYASNRYTGVPSRFSGSGSGTDFTLTISSLQPEDVATYYCQQDYSSPYTFGGGTKVEIKR | 44.3 | 64.8 |  |  |  |  | 
4 | 5M21 hz11 (antibody, human IgG1, kappa, V domains shown, Humanized) VH: QVQLVQSGAEVKKPGASVKVSCKASGYTFTTYYIHWVRQAPGQRLEWMGWIYPGNVNTKYNEKFKGRVTITADKSASTAYMELSSLRSEDTAVYYCARGLYYFDYWGQGTLVTVSS VL: DIQMTQSPSSLSASVGDRVTITCKASQSVSNDVAWYQQKPGKVPKLLIYYASNRYTGVPSRFSGSGSGTDFTLTISSLQPEDLATYFCQQDYSSPYTFGGGTKVEIKR | 44.5 | 64.4 |  |  |  |  | 
5 | chimeric antibody 5M21 xiIgG (antibody, V domains shown) VH: QVQLQQSGPELVKPGASVRITCKASGYTFTTYYIHWVKQRPGQGLEWIGWIYPGNVNTKYNEKFKGKATLTADKSSSTAYMQLSSLTSEDSAVYFCARGLYYFDYWGQGTTLTVSS VL: SIVMTQTPKFLLVSAGDRLTITCKASQSVSNDVAWYQQKPGQSPKLLIYYASNRYTGVPDRFTGSGYGTDFTFTISTVQAEDLAVYFCQQDYSSPYTFGGGTKLEIKR | 46.1 | 56.9 |  |  |  |  | 
6 | chimeric antibody 42D20 xiIgG (antibody, V domains shown) VH: QVQLKESGPGLVAPSQSLSISCTVSGFSLIDYGVSWIRQPPGKGLEWLGVIWGDGKIYYNSVLKSRLSISKDNSKSQVFLKMNSLQTDDTAMYYCAKQGGLLFYAMDYWGQGTSVTVSS VL: DIVMTQSPSSLAMSVGQRVTMNCKSSQSLLNSYSQKNYLAWYQQKPGQSPKLLIYFASTRESGVPDRFIGSGSETDFTLTISSVQAEDLADYFCQQHYNTPFTFGSGTKLEIKR |  |  | 0.077 | 54 | 1.01 | 0.000798 | 790000
